Substrate in series [1]: CCCCCCCCCCCC(=O)OCCCCN(O)C(=O)COP(=O)(O)O
Conditions: Mycobacterium tuberculosis.

Substrate in series [2]: O=C(COP(=O)(O)O)N(O)CCCCOP(=O)(O)O
Conditions: Candida albicans.

Substrate in series [3]: CCCCCCCCCCCC(=O)OCCCCN(O)C(=O)COP(=O)(O)O
The conditions noted are these: Helicobacter pylori.

Substrate in series [4]: O=C(COP(=O)(O)O)N(O)CCCCOP(=O)(O)O
The conditions noted are these: Helicobacter pylori.

Substrate in series [5]: CCCCCCCCCCCC(=O)OCCCCN(O)C(=O)COP(=O)(O)O
The conditions noted are these: Yersinia pestis.

Substrate in series [6]: O=C(COP(=O)(O)O)N(O)CCCOP(=O)(O)O
The conditions noted are these: Oryctolagus cuniculus.

Substrate in series [7]: O=C(COP(=O)(O)O)N(O)CCCCOP(=O)(O)O
The conditions noted are these: Oryctolagus cuniculus.

B1: Fructose-bisphosphate aldolase (Mycobacterium tuberculosis), P9WQA3 (protein)
chain: MPIATPEVYAEMLGQAKQNSYAFPAINCTSSETVNAAIKGFADAGSDGIIQFSTGGAEFGSGLGVKDMVTGAVALAEFTHVIAAKYPVNVALHTDHCPKDKLDSYVRPLLAISAQRVSKGGNPLFQSHMWDGSAVPIDENLAIAQELLKAAAAAKIILEIEIGVVGGEEDGVANEINEKLYTSPEDFEKTIEALGAGEHGKYLLAATFGNVHGVYKPGNVKLRPDILAQGQQVAAAKLGLPADAKPFDFVFHGGSGSLKSEIEEALRYGVVKMNVDTDTQYAFTRPIAGHMFTNYDGVLKVDGEVGVKKVYDPRSYLKKAEASMSQRVVQACNDLHCAGKSLTH
For orientation: Km means the substrate concentration at which the rate is half of its maximum. Take B1: the Km in series [1] came out at 0.31 µM.

B2: Fructose-bisphosphate aldolase (Candida albicans (strain SC5314 / ATCC MYA-2876) (Yeast)), Q9URB4 (protein)
chain: MAPPAVLSKSGVIYGKDVKDLFDYAQEKGFAIPAINVTSSSTVVAALEAARDNKAPIILQTSQGGAAYFAGKGVDNKDQAASIAGSIAAAHYIRAIAPTYGIPVVLHTDHCAKKLLPWFDGMLKADEEFFAKTGTPLFSSHMLDLSEETDDENIATCAKYFERMAKMGQWLEMEIGITGGEEDGVNNEHVEKDALYTSPETVFAVYESLHKISPNFSIAAAFGNVHGVYKPGNVQLRPEILGDHQVYAKKQIGTDAKHPLYLVFHGGSGSTQEEFNTAIKNGVVKVNLDTDCQYAYLTGIRDYVTNKIEYLKAPVGNPEGADKPNKKYFDPRVWVREGEKTMSKRIAEALDIFHTKGQL
B2: the Michaelis-Menten constant (Km) in series [2] came out at 100 µM.

B3: Fructose-bisphosphate aldolase (Helicobacter pylori (strain ATCC 700392 / 26695) (Campylobacterpylori)), P56109 (protein)
chain: MLVKGNEILLKAHKEGYGVGAFNFVNFEMLNAIFEAGNEENSPLFIQTSEGAIKYMGIDMAVGMVKTMCERYPHIPVALHLDHGTTFESCEKAVKAGFTSVMIDASHHAFEENLELTSKVVKMAHNAGVSVEAELGRLMGIEDNISVDEKDAVLVNPKEAEQFVKESQVDYLAPAIGTSHGAFKFKGEPKLDFERLQEVKRLTNIPLVLHGASAIPDNVRKSYLDAGGDLKGSKGVPFEFLQESVKGGINKVNTDTDLRIAFIAEVRKVANEDKSQFDLRKFFSPAQLALKNVVKERMKLLGSANKI
As to B3, the Km in series [3] turned out to be 4 µM; in series [4], 0.07 µM.

B4: Fructose-bisphosphate aldolase class II (Yersinia pestis), A0A380PJR2 (protein)
chain: MSKIFDFVKPGVITGDDVQKVFAVAKENNFALPAVNCVGTDSINAVLETAAKVRAPVIVQFSNGGAAFIAGKGVKTDAPQGAAILGAISGAHHVHQMAEHYGVPVILHTDHCAKKLLPWLDGLLDAGEKHFAATGKPLFSSHMIDLSEESLEENIEICSKYLTRMSKIGMTLEIELGCTGGEEDGVDNSHMDASSLYTQPQDVDYAYEKLNAISPRFTIAASFGNVHGVYKPGNVKLTPTILRDSQDYVSKKHNLPHNSLNFVFHGGSGSTAEEIKEAVSYGVVKMNIDTDTQWATWEGILNYYKKNEGYLQGQLGNPEGADKPNKKYYDPRVWLRAAQVTMITRLELAFKELNAIDVL
In the case of B4, the Michaelis-Menten constant (Km) in series [5] came out at 0.234 µM.

B5: Fructose-bisphosphate aldolase A (Oryctolagus cuniculus), P00883 (protein)
chain: MPHSHPALTPEQKKELSDIAHRIVAPGKGILAADESTGSIAKRLQSIGTENTEENRRFYRQLLLTADDRVNPCIGGVILFHETLYQKADDGRPFPQVIKSKGGVVGIKVDKGVVPLAGTNGETTTQGLDGLSERCAQYKKDGADFAKWRCVLKIGEHTPSALAIMENANVLARYASICQQNGIVPIVEPEILPDGDHDLKRCQYVTEKVLAAVYKALSDHHIYLEGTLLKPNMVTPGHACTQKYSHEEIAMATVTALRRTVPPAVTGVTFLSGGQSEEEASINLNAINKCPLLKPWALTFSYGRALQASALKAWGGKKENLKAAQEEYVKRALANSLACQGKYTPSGQAGAAASESLFISNHAY
For B5, the results for the Km in series [6] and in series [7] were 264 µM and 15 µM, respectively.

Values taken from ChEMBL document CHEMBL1275330, “Rational design, synthesis, and evaluation of new selective inhibitors of microbial class II (zinc dependent) fructose bis-phosphate aldolases” (J Med Chem, 2010).
